The term Kd denotes the free concentration of one partner at which half of the binding sites on the other are occupied at equilibrium, for simple one-to-one binding. Read a low Kd as higher affinity.

The data set concerns pTERF1 (Clostridia bacterium (ruminant gut metagenome)). The experiment in a line: BLI. Conditions: BLI: PBS, 0.02% Tween, pH 7.4, 25 C, 1:1 global fit; EMSA: 40 nM probe, room temperature 30 min, 6% native PAGE, buffer not stated.

In turn, pTERF1 motif probe gave a Kd of 1.87 nM.

These data come from article PMC11417379.
